Measurements from patent publication US20260159606A1 (VIB VZW, published 2026).
Positions count from the first letter of the chain named.

B1: bivalent VHH A2R3-59-59 (VHH)
chain: QVQLQESGGGLVQPGGSLRLSCAASGSISGINGMGWYRQAPGKQRELVAAITSGGSTNYADSVKGRFTISRDNAKNTVDLQMNSLQPEDTAVYYCYVSSTPSWGLYDDYWGQGTQVTVSSGGGGSGGGGSGGGGSQVQLQESGGGLVQPGGSLRLSCAASGSISGINGMGWYRQAPGKQRELVAAITSGGSTNYADSVKGRFTISRDNAKNTVDLQMNSLQPEDTAVYYCYVSSTPSWGLYDDYWGQGTQVTVSS
notes: also called bivalent A2R3-59
B2: VHH A2R3-55 (VHH)
VHH: QVQLQESGGGLVQAGGSLRLSCAASGSIDRIDAMGWSRQAPGKQRELVATITTGGITNYAVSVKGRFTISRDNAKNTVYLQMNSLKPEDTAVYYCNAQGAPSWGLYEDYWGQGTQVTVSS

Legend:
[1] = target: T1, hPIV-3 hemagglutinin-neuraminidase (HN), expressed on transfected HEK293T cells (human parainfluenza virus 3 (hPIV-3), UniProt P08492 1-572); assay: flow cytometry on transfected HEK293T cells, 10 µg/ml (FIG. 16A)
T1 construct: also called hPIV-3 HN; HN3
T1 chain: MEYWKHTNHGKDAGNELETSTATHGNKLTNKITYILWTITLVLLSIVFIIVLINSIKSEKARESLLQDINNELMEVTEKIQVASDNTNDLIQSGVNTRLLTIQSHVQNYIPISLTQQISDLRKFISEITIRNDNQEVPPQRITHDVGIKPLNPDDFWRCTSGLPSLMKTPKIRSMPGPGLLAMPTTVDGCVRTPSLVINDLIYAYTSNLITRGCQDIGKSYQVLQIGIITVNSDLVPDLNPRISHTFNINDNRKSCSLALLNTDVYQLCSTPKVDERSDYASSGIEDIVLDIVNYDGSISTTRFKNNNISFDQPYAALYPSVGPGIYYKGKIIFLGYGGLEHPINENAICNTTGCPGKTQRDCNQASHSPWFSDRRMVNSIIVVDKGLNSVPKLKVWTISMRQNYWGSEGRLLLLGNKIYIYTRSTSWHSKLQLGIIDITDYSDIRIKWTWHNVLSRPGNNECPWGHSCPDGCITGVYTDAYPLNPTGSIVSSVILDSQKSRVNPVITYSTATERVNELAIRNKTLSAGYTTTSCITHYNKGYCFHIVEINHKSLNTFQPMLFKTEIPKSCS

[2] = target: T2, D275N- and R277T-mutant hPIV-3 HN, expressed on transfected HEK293T cells (human parainfluenza virus 3 (hPIV-3), UniProt P08492 1-572); assay: flow cytometry on transfected HEK293T cells, VHH 1 or 0.1 µg/ml (FIG. 11C)
T2 construct: also called mut HN3
T2 chain: T1 chain with D275N, R277T

[3] = target: T3, HN of hPIV-1-GFP virus (on virions and on hPIV-1-infected cells) (human parainfluenza virus 1 (hPIV-1), UniProt P16071 1-575); assay: cell-based or functional assay
T3 sequence: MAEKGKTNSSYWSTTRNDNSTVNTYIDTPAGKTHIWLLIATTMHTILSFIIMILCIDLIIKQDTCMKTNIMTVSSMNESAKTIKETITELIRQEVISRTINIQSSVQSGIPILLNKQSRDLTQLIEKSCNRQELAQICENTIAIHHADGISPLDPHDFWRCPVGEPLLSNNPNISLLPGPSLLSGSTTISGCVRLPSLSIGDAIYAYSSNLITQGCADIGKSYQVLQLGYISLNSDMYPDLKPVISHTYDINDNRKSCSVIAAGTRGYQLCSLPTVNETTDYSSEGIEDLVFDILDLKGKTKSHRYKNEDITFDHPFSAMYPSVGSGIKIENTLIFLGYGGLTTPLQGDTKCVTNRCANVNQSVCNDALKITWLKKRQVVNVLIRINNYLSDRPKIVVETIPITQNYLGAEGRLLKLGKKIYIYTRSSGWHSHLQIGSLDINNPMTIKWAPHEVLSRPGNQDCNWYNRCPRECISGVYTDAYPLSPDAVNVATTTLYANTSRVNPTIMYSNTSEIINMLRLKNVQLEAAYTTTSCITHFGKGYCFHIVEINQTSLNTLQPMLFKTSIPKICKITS

[4] = target: HN of hPIV-3-GFP virus (on virions and on hPIV-3-infected cells) (human parainfluenza virus 3 (hPIV-3), UniProt P08492 1-572); assay: cell-based or functional assay
[5] = target: T4, hPIV-1 hemagglutinin-neuraminidase (HN), expressed on transfected HEK293T cells (human parainfluenza virus 1 (hPIV-1), UniProt P16071 1-575); assay: flow cytometry on transfected HEK293T cells
T4 construct: whole, on cells; also called hPIV-1 HN; HN1
T4 sequence: T3 sequence

[6] = target: T5, hPIV-3 fusion protein (F), expressed on transfected HEK293T cells (human parainfluenza virus 3 (hPIV-3), UniProt P06828 19-539); assay: flow cytometry on transfected HEK293T cells (FIG. 4)
T5 construct: whole, on cells

[7] = target: T1, hPIV-3 hemagglutinin-neuraminidase …
[8] = target: T2, D275N- and R277T-mutant hPIV-3 HN, …; assay: flow cytometry on transfected HEK293T cells (FIG. 11C)

Binder	binding result [1]	binding result [2]	IC50 of neutralization of hPIV-1-GFP on Vero (E6) TMPRSS2 cells [3]	fold higher potency of hPIV-3-GFP neutralization than the monovalent counterpart [4]	binding result [5]	binding result [6]	fold reduction of binding at 500 µg/ml of zanamivir [7]	binding result [8]
B1	binds	binds	2.9 nM	~8 fold	–	–	–	–
B2	–	–	–	–	no binding	no binding (tested: 1 µg/ml)	~5 fold	no binding (tested: 1 or 0.1 µg/ml)
